Results from US20210214460A1 (AstraZeneca / MedImmune, published 2021).

T1: membrane-bound human BCMA (human, UniProt Q02223 1-184)
T1 construct: whole, on cells; also called huBCMA
T1 sequence (looked up): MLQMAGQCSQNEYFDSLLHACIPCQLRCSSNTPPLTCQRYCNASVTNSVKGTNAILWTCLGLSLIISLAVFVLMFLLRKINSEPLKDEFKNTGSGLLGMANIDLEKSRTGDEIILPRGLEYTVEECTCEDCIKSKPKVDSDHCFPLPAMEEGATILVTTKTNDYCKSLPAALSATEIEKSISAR

T2: monomeric human sBCMA (GenScript) (human, UniProt Q02223 1-54)
T2 construct: extracellular domain; also called monomeric BCMA; monomeric (soluble) BCMA
T2 sequence (looked up): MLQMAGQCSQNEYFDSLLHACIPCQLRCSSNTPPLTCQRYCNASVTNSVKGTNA


Legend:
[1] = target: T1, membrane-bound human BCMA; test: flow cytometry on NCI-H929 cells (endogenous BCMA), printed as apparent affinity
Experimental: (§1) Binding of 15B2GL, I09, L15, and J6M0 to membrane-bound human BCMA was evaluated using flow cytometry in multiple myeloma and plasma cell leukemia cell lines that endogenously express BCMA (NCI-H929 and MM.1S, respectively). Binding of 15B2GL, 109, L15 to membrane-bound human BCMA was also evaluated in Ad293 cells expressing human BCMA. Binding assays were performed by incubating the anti-BCMA antibodies with 200,000 cells for 30 minutes at 4° C. followed by two washes with PBS+2% FBS (FACS Buffer). A range of antibody concentrations were evaluated using a 12-point, 3-fold dilution series. Cells were then incubated with 5 ug/mL goat-anti human IgG-AF647 secondary antibodies (Thermo Fisher Scientific, Waltham, Mass.) at 4° C., followed by two washes in PBS+2% FBS. Cells were resuspended in 200 uL PBS+2% FBS+DAPI.
(§2) Fluorescence of live, single cells was measured using a BD Biosciences LSRII cytometer and BD FACSDiva™ software (BD Biosciences, San Jose, Calif.). Data were analyzed using FlowJo™ software (FlowJo, LLC, Ashland, Oreg.). Mean fluorescence intensity values were used to determine percentage bound and EC50 was determined using Prism™ software (GraphPad Software Inc, La Jolla, Calif.).

[2] = target: T1, membrane-bound human BCMA; test: flow cytometry on MM.1S cells (endogenous BCMA), printed as apparent affinity
Experimental: as §1, §2

[3] = target: T2, monomeric human sBCMA (GenScript); test: SPR (ProteOn XPR36), antibody captured by anti-Fc, sBCMA 100-6.25 nM as analyte
Experimental: The binding of 15B2GL monoclonal antibody and optimized clones I09, L15, P10, N22, and M02 (described in Example 1) was assessed using monomeric human sBCMA (GenScript, Piscataway, N.J.) using a ProteOn™ XPR36 instrument (Bio-Rad, Hercules, Calif.). The binding of J6M0 also was assessed for comparison. Standard amine coupling was used to immobilize 25 μg/ml anti-Fc polyclonal antibody (Jackson ImmunoResearch, West Grove, Pa.) prepared in 10 mM sodium acetate buffer (pH 4.5) to the surface of a ProteOn™ GLC biosensor chip (Bio-Rad, Hercules, Calif.) pre-activated with 20 mM EDAC (1-ethyl-3-(3-dimethylaminopropyl)carbodiimide hydrochloride) and 5 mM Sulfo-NHS (N-hydroxysulfosuccinimide) at a density of ˜200-600 resonance units (RU). 15B2GL, I09, L15, P10, N22, M02, and J6M0 were subsequently injected at a concentration of 1 μg/ml for capture by the immobilized anti-Fc polyclonal antibody. The sensorgram was recorded by flowing two-fold serial dilutions of sBCMA prepared in PBS (pH 7.4) with 0.005% (v/v) Tween®-20, ranging from 100-6.25 nM, over the captured surface for 150 seconds at 75 μL/minute with dissociation time of 600 seconds. ProteOn™ data analysis software was used to analyze the data.

[4] = target: T1, membrane-bound human BCMA; test: flow cytometry on Ad293 cells expressing human BCMA, printed as apparent affinity
Experimental: as §1, §2

Binder | EC50 [1] [nM] | EC50 [2] [nM] | Kd [3] [nM] | EC50 [4] [nM]
L15 (lead optimized clone of 15B2GL) (antibody, V domains shown, Cloned into an IgG mammalian expression vector ("Maia") designed for ADC conjugation) VH: EVQLVESGGGLVKPGGSLRLSCAASGFTFSSYSMNWVRQAPGKGLEWVSSISGQSNYIYYADSVKGRFTISRDNAKNSLYLQMNSLRAEDTAVYYCARGGNYFVEYFQYWGQGTLVTVSS VL: EIVLTQSPGTLSLSPGERATLSCRASQYISSNNLAWYQQKPGQAPRLLIYGASNRATGIPDRFSGSGSGTDFTLTISRLEPEDFAVYYCQQYADSPITFGQGTKLEIK | 4.2 | 4.2 | 4.5 | 4.48
M02 (lead optimized clone of 15B2GL) (antibody, V domains shown, Cloned into an IgG mammalian expression vector ("Maia") designed for ADC conjugation) VH: EVQLVESGGGLVKPGGSLRLSCAASGFTFSSYSMNWVRQAPGKGLEWVSSISGQSNYIYYADSVKGRFTISRDNAKNSLYLQMNSLRAEDTAVYYCARGGNYYVEYFQYWGQGTLVTVSS VL: EIVLTQSPGTLSLSPGERATLSCRASQYISSNNLAWYQQKPGQAPRLLIYGASNRATGIPDRFSGSGSGTDFTLTISRLEPEDFAVYYCQQYSSDPITFGQGTKLEIK |  |  | 9.9 | 
N22 (lead optimized clone of 15B2GL) (antibody, V domains shown, Cloned into an IgG mammalian expression vector ("Maia") designed for ADC conjugation) VH: EVQLVESGGGLVKPGGSLRLSCAASGFTFSSYSMNWVRQAPGKGLEWVSSISGSSNYIYYADSVKGRFTISRDNAKNSLYLQMNSLRAEDTAVYYCARGGNYFVEYFQYWGQGTLVTVSS VL: EIVLTQSPGTLSLSPGERATLSCRASQYISSNYLAWYQQKPGQAPRLLIYGASNRATGIPDRFSGSGSGTDFTLTISRLEPEDFAVYYCQQYSSSPITFGQGTKLEIK |  |  | 16 | 
P10 (lead optimized clone of 15B2GL) (antibody, V domains shown, Cloned into an IgG mammalian expression vector ("Maia") designed for ADC conjugation) VH: EVQLVESGGGLVKPGGSLRLSCAASGFTFRSYSMNWVRQAPGKGLEWVSSISGQSNYIYYADSVKGRFTISRDNAKNSLYLQMNSLRAEDTAVYYCARGGNYYVEYFQYWGQGTLVTVSS VL: EIVLTQSPGTLSLSPGERATLSCRASQYISSNYLAWYQQKPGQAPRLLIYGASNRATGIPDRFSGSGSGTDFTLTISRLEPEDFAVYYCQQYTDSPITFGQGTKLEIK |  |  | 5.3 | 
anti-BCMA antibody J6M0 (antibody, V domains shown) VH: QVQLVQSGAEVKKPGSSVKVSCKASGGTFSNYWMHWVRQAPGQGLEWMGATYRGHSDTYYNQKFKGRVTITADKSTSTAYMELSSLRSEDTAVYYCARGAIYDGYDVLDNWGQGTLVTVSS VL: DIQMTQSPSSLSASVGDRVTITCSASQDISNYLNWYQQKPGKAPKLLIYYTSNLHSGVPSRFSGSGSGTDFTLTISSLQPEDFATYYCQQYRKLPWTFGQGTKLEIK | 6.02 | 6.65 | 1 | 
